± gives the standard error. For some assays here: Variants at the floor of the assay were thinned out.
B1: glmS ribozyme (parent)
chain: AUAAAAGCGCCAGAACUACAGAAAUGUAGUUGACGAGGAGGAGGUUUAUCGAAUUUUCGGCGGAUGCCUCCAAA

Tests used:
Conditions in all cases: with glucosamine-6-phosphate
glucosamine-6-phosphate [1] = variants of: B1; experiment: kcat; higher = faster cleavage; RNA array
Outline: (§1)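 Sequenced MiSeq chips were the platform: E. coli RNA polymerase transcribed barcoded ribozyme variants on them in situ, and a hybridised Cy3 probe tracked these at 37 °C. After glucosamine-6-phosphate (40 μM to 10 mM) in HEPES/KCl/Mg(OAc)2 buffer was flowed in, tiles were imaged over ~14 h. Signals normalised to baseline and to non-cleaving reference variants were reduced to per-tile medians and fit to one- or two-exponential decays to obtain kobs. kcat and KM were derived through weighted Michaelis–Menten fits across concentrations.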

glucosamine-6-phosphate [2] = variants of: B1; experiment: self-cleavage kobs at 10000 uM GlcN6P; higher = faster cleavage; RNA array
Outline: as §1

glucosamine-6-phosphate [3] = variants of: B1; experiment: KM; higher = weaker cofactor use; RNA array
Outline: as §1

glucosamine-6-phosphate [4] = variants of: B1; experiment: self-cleavage kobs at 160 uM GlcN6P; higher = faster cleavage; RNA array
Outline: as §1

glucosamine-6-phosphate [5] = variants of: B1; experiment: self-cleavage kobs at 640 uM GlcN6P; higher = faster cleavage; RNA array
Outline: as §1

glucosamine-6-phosphate [6] = variants of: B1; experiment: self-cleavage kobs at 2500 uM GlcN6P; higher = faster cleavage; RNA array
Outline: as §1

glucosamine-6-phosphate [7] = variants of: B1; experiment: self-cleavage kobs at 40 uM GlcN6P; higher = faster cleavage; RNA array
Outline: as §1

Variant | kcat (glucosamine-6-phosphate [1]) [s⁻¹] | self-cleavage kobs at 10000 uM GlcN6P (glucosamine-6-phosphate [2]) [s⁻¹] | KM (glucosamine-6-phosphate [3]) [µM] | self-cleavage kobs at 160 uM GlcN6P (glucosamine-6-phosphate [4]) [s⁻¹] | self-cleavage kobs at 640 uM GlcN6P (glucosamine-6-phosphate [5]) [s⁻¹] | self-cleavage kobs at 2500 uM GlcN6P (glucosamine-6-phosphate [6]) [s⁻¹] | self-cleavage kobs at 40 uM GlcN6P (glucosamine-6-phosphate [7]) [s⁻¹]
U47G U49G | 8.66e-05 ± 9.3e-06 | 8.15e-05 ± 1.2e-05 | – | – | – | – | –
A52G A53G | 0.00183 ± 0.00052 | 0.00145 ± 0.0002 | 3690 ± 1700 | 0.000131 ± 3e-05 | 0.000264 ± 5.9e-05 | 0.000638 ± 0.0001 | –
U49G A52U | 1.85e-05 ± 1.5e-06 | – | 2320 ± 910 | < 1e-05 | – | – | –
U49G U69A | 4.14e-05 ± 1.7e-05 | – | – | – | – | 8.22e-05 ± 2.2e-05 | –
U49G U69G | 6.03e-05 ± 2.8e-05 | – | – | – | 9.69e-05 ± 3.4e-05 | 9.67e-05 ± 2.8e-05 | –
C50U A64C | < 1e-05 | < 1e-05 | – | < 1e-05 | < 1e-05 | – | –
U49G A53C | 0.000546 ± 0.00023 | 0.000368 ± 8.5e-05 | – | – | 7.82e-05 ± 2.4e-05 | 0.000369 ± 6.4e-05 | –
U49G A53U | 0.00103 ± 0.00011 | 0.000709 ± 8.3e-05 | 4490 ± 760 | 2.84e-05 ± 8.8e-06 | 0.00014 ± 1.9e-05 | 0.000364 ± 5.6e-05 | –
C50A A64G | 1.03e-05 ± 2.3e-07 | – | 106 ± 36 | – | – | – | –
A48C G66A | 0.000159 ± 2.8e-05 | 0.000121 ± 1.4e-05 | – | < 1e-05 | – | 8.27e-05 ± 1.8e-05 | –
G51A C68A | 2.97e-05 ± 4.5e-06 | – | – | – | – | – | –
U49A C50G C71U | 1.88e-05 ± 4.4e-06 | – | – | – | – | – | –
C50A C61U | < 1e-05 | – | – | – | < 1e-05 | – | –
U49A U69A | 5.14e-05 ± 1.9e-05 | – | – | – | – | – | –
A52C C67U | 1.21e-05 ± 4.7e-06 | – | – | – | – | – | –
U49G U55G | 0.000836 ± 7.3e-05 | 0.000687 ± 9.4e-05 | 1400 ± 250 | 8.7e-05 ± 1.8e-05 | 0.000247 ± 5e-05 | 0.000582 ± 6.3e-05 | –
A53C U55C | 0.0014 ± 0.00029 | 0.00116 ± 0.00017 | 1150 ± 480 | 0.00015 ± 4e-05 | 0.00052 ± 9.2e-05 | 0.00148 ± 0.00029 | –
A52U U69A | 5.73e-05 ± 1.5e-05 | 3.63e-05 ± 1.2e-05 | – | – | 4.77e-05 ± 1.1e-05 | 7.38e-05 ± 1.2e-05 | –
U49A C71U | 1.56e-05 ± 3.2e-06 | – | – | – | < 1e-05 | – | –
C50A | 2.67e-05 ± 8.3e-07 | 2.49e-05 ± 1.3e-06 | 579 ± 130 | – | 1.25e-05 ± 3.1e-06 | 2.31e-05 ± 2.1e-06 | –
C50U | 0.000131 ± 9.2e-06 | 9.95e-05 ± 1.6e-06 | 3300 ± 600 | – | 2.57e-05 ± 1.5e-06 | 5.29e-05 ± 1.6e-06 | –

Variant | kcat (glucosamine-6-phosphate [1]) [s⁻¹] | self-cleavage kobs at 10000 uM GlcN6P (glucosamine-6-phosphate [2]) [s⁻¹] | KM (glucosamine-6-phosphate [3]) [µM] | self-cleavage kobs at 160 uM GlcN6P (glucosamine-6-phosphate [4]) [s⁻¹] | self-cleavage kobs at 640 uM GlcN6P (glucosamine-6-phosphate [5]) [s⁻¹] | self-cleavage kobs at 2500 uM GlcN6P (glucosamine-6-phosphate [6]) [s⁻¹] | self-cleavage kobs at 40 uM GlcN6P (glucosamine-6-phosphate [7]) [s⁻¹]
C50G | 0.000456 ± 6.7e-05 | 0.000408 ± 5.8e-05 | 90.7 ± 38 | 0.000444 ± 4.8e-05 | 0.000443 ± 4.5e-05 | 0.000399 ± 4e-05 | 0.000121 ± 1.5e-05
U47G G59U | 2.47e-05 ± 4.4e-06 | 2.13e-05 ± 1e-05 | – | – | – | 3.31e-05 ± 1.7e-05 | –
C50A C71A | 1.53e-05 ± 3.9e-06 | – | – | – | – | – | –
C50A C71G | 1.89e-05 ± 5.7e-06 | – | – | – | – | – | –
C50U C68A C71U | 2.67e-05 ± 9.8e-06 | – | – | – | – | – | –
C50U U57G | < 1e-05 | – | – | – | < 1e-05 | – | –
U49A C67A | 1.28e-05 ± 1.6e-06 | – | – | – | – | – | –
C50G C71U | 0.000123 ± 2.1e-05 | – | – | 0.000107 ± 1e-05 | 0.000194 ± 2.7e-05 | 0.000103 ± 1.3e-05 | 6.9e-05 ± 9.9e-06
C50G C70G | 0.000103 ± 1.8e-05 | 8.05e-05 ± 8.7e-06 | – | 0.000142 ± 9.9e-06 | 0.000112 ± 1.2e-05 | 9.3e-05 ± 1e-05 | 7.4e-05 ± 7.4e-06
U47G C58U | 8.14e-05 ± 1.6e-05 | 6.32e-05 ± 8.6e-06 | – | – | – | 3.07e-05 ± 1.2e-05 | –
U49A U55G | 1.38e-05 ± 6.5e-06 | – | – | – | – | – | –
U49A U55A | 3.61e-05 ± 1.5e-06 | 2.26e-05 ± 9.3e-06 | 5970 ± 610 | – | – | – | –
U49G U65A | 2.22e-05 ± 4.5e-06 | – | – | < 1e-05 | – | – | –
U49G U65G | 0.0002 ± 2.3e-05 | 0.000124 ± 1.8e-05 | 6050 ± 1500 | – | – | 6.08e-05 ± 1.7e-05 | –
A53G C61U | 2.57e-05 ± 1e-06 | – | – | – | – | – | < 1e-05
U47G U54G | 0.0073 ± 0.0022 | 0.00685 ± 0.0015 | 724 ± 320 | 0.000915 ± 0.00023 | 0.00367 ± 0.00086 | 0.0063 ± 0.0018 | 0.00053 ± 8.3e-05
U47G U54A | 0.00987 ± 0.0039 | 0.00946 ± 0.0015 | – | – | 0.00157 ± 0.00052 | 0.00522 ± 0.0019 | 0.000306 ± 4.7e-05
A52U U54A | 0.000204 ± 9.2e-06 | 0.000172 ± 1.8e-05 | 1670 ± 180 | – | 5.55e-05 ± 8.3e-06 | 0.000132 ± 2.1e-05 | –
A52U U54C | 0.000603 ± 4.5e-05 | 0.000462 ± 8.6e-05 | 2570 ± 310 | 3.57e-05 ± 9.5e-06 | 0.000115 ± 1.9e-05 | 0.000318 ± 5e-05 | –
C50U C70U | 4.57e-05 ± 5.9e-07 | 4.51e-05 ± 7.2e-06 | 154 ± 18 | – | 3.85e-05 ± 1.4e-05 | 4.25e-05 ± 8.3e-06 | –

Reference: the supplement of paper PMC7125110
